Data published in PMC4813732.

How the values were obtained:
[1] = target: Human thrombin (human)
[2] = target: Human thrombin (human); remark: listed apart in the source

Substance	heparin cofactor activity (residual thrombin activity at the end of thrombin inactivation in the presence of heparin; phAT as standard) [1] [IU/mg]	second-order rate constant of thrombin inhibition, with heparin (residual thrombin activity on S-2238, 25°C, pH 7.4) [2]	second-order rate constant of thrombin inhibition, without heparin (residual thrombin activity on S-2238, 25°C, pH 7.4) [2]
latent form of recombinant human antithrombin (from UniProt P01008 33-464) (natural protein)	0.35	–	–
α-form of recombinant human antithrombin bearing high-mannose-type N-linked oligosaccharides (from UniProt P01008 33-464) (natural protein)	5.83	1.9e+07 /M/s	6600 /M/s
β-form of recombinant human antithrombin bearing sialylated biantennary complex-type N-linked oligosaccharides lacking a core fucose (from UniProt P01008 33-464) (natural protein)	5.66	2e+07 /M/s	7300 /M/s
β-form of recombinant human antithrombin bearing high-mannose-type N-linked oligosaccharides (from UniProt P01008 33-464) (natural protein)	5.8	1.9e+07 /M/s	6100 /M/s
α-form of recombinant human antithrombin bearing sialylated biantennary complex-type N-linked oligosaccharides lacking a core fucose (from UniProt P01008 33-464) (natural protein)	5.49	1.9e+07 /M/s	–
